{"source": "paper PMC12802937", "about": "(Nucleic Acids Research, 2026)", "assay_in_all_cases": "ITC; Lge1-CT (50–60 μM) injected into Bre1-LR (15 μM); 25°C, 20 mM TRIS (pH 7.5), 200 mM sodium chloride", "settings_in_all_cases": "both partners purified", "key": {"[1]": {"target": "T1, Bre1-LR K379A (budding yeast, UniProt Q07457 227-700, K379A)", "T1 construct": "source: E. coli BL21 Rosetta (DE3), purified (Ni-NTA, heparin, gel filtration)", "T1 sequence (looked up)": "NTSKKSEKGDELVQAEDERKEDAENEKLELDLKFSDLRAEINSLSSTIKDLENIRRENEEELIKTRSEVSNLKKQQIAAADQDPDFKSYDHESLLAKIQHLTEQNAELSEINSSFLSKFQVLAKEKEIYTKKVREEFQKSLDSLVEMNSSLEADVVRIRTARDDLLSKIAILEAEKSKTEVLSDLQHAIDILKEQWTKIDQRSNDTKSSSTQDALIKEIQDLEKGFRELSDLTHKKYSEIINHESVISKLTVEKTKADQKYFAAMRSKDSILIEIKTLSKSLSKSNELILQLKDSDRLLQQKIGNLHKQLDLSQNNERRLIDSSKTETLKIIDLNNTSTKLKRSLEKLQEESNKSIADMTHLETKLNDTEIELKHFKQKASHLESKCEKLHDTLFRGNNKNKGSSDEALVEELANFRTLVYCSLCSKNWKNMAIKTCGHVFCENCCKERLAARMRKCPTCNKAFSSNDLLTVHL"}, "[2]": {"target": "T2, Bre1-LR V382N (budding yeast, UniProt Q07457 227-700, V382N)", "T2 construct": "source: E. coli BL21 Rosetta (DE3), purified (Ni-NTA, heparin, gel filtration)", "T2 sequence (looked up)": "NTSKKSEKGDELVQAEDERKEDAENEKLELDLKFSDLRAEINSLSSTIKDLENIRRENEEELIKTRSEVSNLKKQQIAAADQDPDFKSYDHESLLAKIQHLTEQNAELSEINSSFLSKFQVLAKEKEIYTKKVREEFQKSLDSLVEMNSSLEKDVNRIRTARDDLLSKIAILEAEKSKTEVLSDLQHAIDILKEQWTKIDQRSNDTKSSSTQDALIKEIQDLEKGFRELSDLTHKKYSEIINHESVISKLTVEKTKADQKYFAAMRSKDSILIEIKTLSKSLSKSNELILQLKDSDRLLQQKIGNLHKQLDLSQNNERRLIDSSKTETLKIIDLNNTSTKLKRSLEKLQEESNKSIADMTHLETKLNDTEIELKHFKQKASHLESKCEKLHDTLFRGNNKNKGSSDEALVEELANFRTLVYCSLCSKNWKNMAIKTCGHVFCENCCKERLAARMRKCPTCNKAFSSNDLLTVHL"}, "[3]": {"target": "T3, Bre1-LR A489N (budding yeast, UniProt Q07457 227-700, A489N)", "T3 construct": "source: E. coli BL21 Rosetta (DE3), purified (Ni-NTA, heparin, gel filtration)", "T3 sequence (looked up)": "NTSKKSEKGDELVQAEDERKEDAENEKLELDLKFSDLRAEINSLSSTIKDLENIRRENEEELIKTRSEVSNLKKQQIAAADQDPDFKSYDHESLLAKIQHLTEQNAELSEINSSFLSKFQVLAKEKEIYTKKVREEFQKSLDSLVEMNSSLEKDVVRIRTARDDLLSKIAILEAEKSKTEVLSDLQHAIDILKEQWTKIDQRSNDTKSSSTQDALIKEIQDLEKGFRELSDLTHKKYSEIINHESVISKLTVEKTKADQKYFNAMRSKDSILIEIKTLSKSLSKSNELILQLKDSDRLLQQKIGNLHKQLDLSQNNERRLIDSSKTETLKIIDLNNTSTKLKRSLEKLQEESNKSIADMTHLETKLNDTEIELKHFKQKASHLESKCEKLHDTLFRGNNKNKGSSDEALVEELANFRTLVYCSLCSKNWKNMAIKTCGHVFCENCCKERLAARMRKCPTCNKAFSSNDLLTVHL"}, "[4]": {"target": "T4, Bre1-LR K352E (budding yeast, UniProt Q07457 227-700, K352E)", "T4 construct": "source: E. coli BL21 Rosetta (DE3), purified (Ni-NTA, heparin, gel filtration)", "T4 sequence (looked up)": "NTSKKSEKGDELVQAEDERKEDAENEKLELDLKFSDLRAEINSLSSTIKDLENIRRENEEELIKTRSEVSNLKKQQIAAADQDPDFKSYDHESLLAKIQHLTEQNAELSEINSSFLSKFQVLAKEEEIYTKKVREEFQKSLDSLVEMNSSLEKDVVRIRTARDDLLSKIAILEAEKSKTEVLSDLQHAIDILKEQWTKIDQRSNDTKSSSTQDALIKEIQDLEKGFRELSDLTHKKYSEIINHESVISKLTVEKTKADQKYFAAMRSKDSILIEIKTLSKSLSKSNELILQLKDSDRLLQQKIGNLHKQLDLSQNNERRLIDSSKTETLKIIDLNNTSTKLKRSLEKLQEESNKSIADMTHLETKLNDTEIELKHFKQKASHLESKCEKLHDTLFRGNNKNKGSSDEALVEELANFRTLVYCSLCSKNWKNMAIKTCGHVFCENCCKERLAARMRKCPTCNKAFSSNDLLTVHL"}}, "data": [{"binder": "Lge1-CT (Lge1 residues 261–332), intein-chitin binding domain (CBD) tag construct (domain or fragment, budding yeast, UniProt Q02796 261-332, looked up, Lge1, budding yeast, residues 261-332; residues 268–331 resolved in the electron density; the intein-CBD tag is named on the protein in the pull-down; also called intein-CBD-fused Lge1-CT; intein-CBD-tagged Lge1-CT; source: E. coli BL21 Rosetta (DE3): cleared cell extract on chitin resin (pull-down); purified (chitin, heparin, gel filtration) for ITC and SPR; co-purified with Bre1-LR for the …) KNVKKTNNTESECEKAREVFKESDSIDSALEELNLKINSNELELRLLNNQCDKHALNIQLTQEKLDSLLLMQ", "values": [{"measurement": "Kd", "setting": "[1]", "value": "82.3 ± 20", "unit": "nM"}, {"measurement": "dH", "setting": "[1]", "value": "-44.1 ± 1.8", "unit": "kcal/mol"}, {"measurement": "stoichiometry N", "setting": "[1]", "value": "0.415 ± 0.007"}, {"measurement": "Kd", "setting": "[2]", "value": "61.2 ± 14.4", "unit": "nM"}, {"measurement": "dH", "setting": "[2]", "value": "-53.1 ± 1.7", "unit": "kcal/mol"}, {"measurement": "stoichiometry N", "setting": "[2]", "value": "0.378 ± 0.005"}, {"measurement": "Kd", "setting": "[3]", "value": "154 ± 55", "unit": "nM"}, {"measurement": "dH", "setting": "[3]", "value": "-52.1 ± 3.6", "unit": "kcal/mol"}, {"measurement": "stoichiometry N", "setting": "[3]", "value": "0.375 ± 0.012"}, {"measurement": "Kd", "setting": "[4]", "value": "176 ± 45", "unit": "nM"}, {"measurement": "dH", "setting": "[4]", "value": "-22.9 ± 1.3", "unit": "kcal/mol"}, {"measurement": "stoichiometry N", "setting": "[4]", "value": "0.432 ± 0.011"}]}]}
